Measured values as given in patent US20040209325.

Molecular target: T1, bovine brain myelin basic protein (MBP, Sigma), P02687
T1 chain: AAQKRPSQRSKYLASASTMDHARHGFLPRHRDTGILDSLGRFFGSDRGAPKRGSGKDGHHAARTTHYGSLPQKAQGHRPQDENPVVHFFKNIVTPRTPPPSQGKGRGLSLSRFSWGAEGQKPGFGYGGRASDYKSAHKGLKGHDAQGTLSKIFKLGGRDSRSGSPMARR

B1: OsMAPK5a, endogenous protein from rice leaf extracts (protein)
chain: MDGAPVAEFRPTMTHGGRYLLYDIFGNKFEVTNKYQPPIMPIGRGAYGIVCSVMNFETREMVAIKKIANAFNNDMDAKRTLREIKLLRHLDHENIIGIRDVIPPPIPQAFNDVYIATELMDTDLHHIIRSNQELSEEHCQYFLYQILRGLKYIHSANVIHRDLKPSNLLLNANCDLKICDFGLARPSSESDMMTEYVVTRWYRAPELLLNSTDYSAADVWSVGCIFMELINRQPLFPGRDHMHQMRLITEVIGTPTDDELGFIRNEDARKYMRHLPQYPRRTFASMFPRVQPAALDLIERMLTFNPLQRITVEEALDHPYLERLHDIADEPICLEPFSFDFEQKALNEDQMKQLIFNEAIEMNPNIRY
in-gel kinase assay of immunoprecipitated OsMAPK5a: the OsMAPK5a kinase activity was significantly induced by P. grisea infection
